Residue numbers refer to the chain shown, from its start.
B1: TH027 (antibody, V domains shown)
VH: QITLKESGLTLVRPTQTLTLTCTFSGFSLINSGVGVGWIRQPPGKALEWLALIYWDDDKRYNPSLRSRLTISKATSKNQVVLTMTNMDPVDTATYYCTHRGPGHNTPIYFEFWGQGALVTVSS
VL: QSVLTQSPSASGTPGQRVTISCSGSRSNIGSNFVYWFHQLPGTAPKLLIHSNDQRPSGVPDRFSGSNSGTSASLAISGLRSEDEADYYCAAWDDSLSSWVFGGGTKLTVL
notes: IgG1 (D2:p3)
B2: TH132 (antibody, V domains shown)
VH: EVQLVESGGGLVQPGGSLRLSCAASGITVSRNYMSWVRQAPGKGLEWVSVMFAGGSTFYADSVKGRFTISRDNSKNTLYLQMNSLRAEDTAVYYCARDLGVVGATDYWGQGTLVTVSS
VL: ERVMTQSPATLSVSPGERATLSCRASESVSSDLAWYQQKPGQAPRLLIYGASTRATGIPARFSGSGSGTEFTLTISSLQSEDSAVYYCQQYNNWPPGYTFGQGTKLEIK
notes: IgG1 (D2:p3)
B3: TH132 monoclonal antibody (IgG) (antibody, V domains shown)
VH: B2 VH
VL: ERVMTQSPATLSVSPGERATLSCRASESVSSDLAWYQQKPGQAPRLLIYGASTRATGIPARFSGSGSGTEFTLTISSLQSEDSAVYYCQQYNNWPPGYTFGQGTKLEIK
notes: copies: 2 + 2
B4: TH281 (antibody, V domains shown)
VH: B2 VH with G26E
VL: not shown
notes: IgG1 (D2:p3)
B5: TH003 (antibody, V domains shown)
VH: EVRLLESGGGLVQPGGSLRLSCAASGFTFNDYAMSWVRQAPGEGLEWVSTISYSGGSTYYADSVKGRFTISRDNSKNMLYLQMNSLRAEDTALYYCANGVATADWYFDLWGRGTLVTVSS
VL: QSALTQPRSVSGSPGQSVTISCTGTSSDVGGYNYVSWFQHHPGKAPKLMIYDVTDRPSGVPDRFSGSKSGNTASLTISGLQAEDAADYYCCSYAGTYTVFGGGTKLTVL
notes: IgG1 (D2:p3)
B6: TH272 (antibody, V domains shown)
VH: QITLKESGPTLVKPTQTLTLTCTFSGFSLSTGGVSVGWIRQPPGKALEWLALIYWDDDKRYSPSLESRLTITKDTSKNLVVLTLTNMDPVDTATYYCAHKTIPTIFDYWGQGTLVTVSS
VL: QSALTQPASVSGSPGQSITISCTATSSDVGAYQYVSWYQQYPGKAPKLMIYEVSKRPSGVSNRFSGSKSGNTASLTISGLQAEDDAYYYCNSYTTSSVVFGGGTKLTVL
notes: IgG1 (D2:p3)
B7: TH236 (antibody, V domains shown)
VH: QVQLVESGGGLVKPGGSLRLSCAASGFMISDSYMNWIRQPPGKGLEWVSYISSNGYAIYYGDSVKGRFTISRDNAKNFLYLQMNSLRVEDTAVYYCAREQPGGYYDSSGYRLDPWGQGILVTVSS
VL: QSALTQPASVSGSPGQSITISCTGTSSDVGGYNYVSWYQQHPGKAPKLMIYDVSNRPSGVSNRFSGSKSGNTASLTISGLQAEDEADYYCSSYTSSSTLYVFGTGTKVTVL
notes: IgG1 (D2:p3)

How the values were obtained:
Assay in all cases: SPR
Conditions in all cases: both partners purified
Spike (BA.1) = target: T1, Spike (BA.1) (SARS-CoV-2, Omicron BA.1, strain)
T1 construct: source: bought: Sino Biological

RBD (BA.1) = target: T2, RBD (BA.1) (SARS-CoV-2 Omicron BA.1, strain)
T2 construct: source: bought: Sino Biological

RBD (BA.4/5) = target: T3, RBD (BA.4/5) (SARS-CoV-2, Omicron BA.4/5, strain)
T3 construct: source: bought: Sino Biological

Spike (BA.4/5) = target: T4, Spike (BA.4/5) (SARS-CoV-2, Omicron BA.4/5, strain)
T4 construct: source: bought: Sino Biological

Spike (XBB) = target: T5, Spike (XBB) (SARS-CoV-2, Omicron XBB, strain)
T5 construct: source: bought: Sino Biological

Spike (XBB.1.5) = target: T6, Spike (XBB.1.5) (SARS-CoV-2, Omicron XBB.1.5, strain)
T6 construct: source: bought: Sino Biological

[1] = target: SARS-CoV-2 Omicron XBB.1.5 spike protein (SARS-CoV-2 Omicron XBB.1.5, strain)
[2] = target: SARS-CoV-2 Omicron XBB spike protein (SARS-CoV-2 Omicron XBB, strain)

Binder | Kd (Spike (BA.1)) [nM] | Kd (RBD (BA.1)) [nM] | Kd (RBD (BA.4/5)) [nM] | Kd (Spike (BA.4/5)) [nM] | Kd (Spike (XBB)) [nM] | Kd (Spike (XBB.1.5)) [nM] | Kd [1] [nM] | Kd [2] [nM]
B1 | 7.06 | 0.838 | 0.752 | 1.86 |  |  |  | 
B2 | 1.26 | 0.726 | 0.484 | 0.00171 | 1.34 | 1.09 |  | 
B3 |  |  |  |  |  |  | ~1 | ~1
B4 | 0.517 | 0.119 | 0.00781 |  |  |  |  | 
B5 | 2.55 | 1.29 | 0.484 | 1.59 |  |  |  | 
B6 | 1.33 | 0.296 | 0.045 | 0.000976 |  |  |  | 
B7 | 0.0867 | 0.3 | 0.621 | 0.602 |  |  |  | 

From paper PMC10267556 (Nature Communications, 2023)
